From paper PMC5673899, “Structural basis for receptor recognition of pollen tube attraction peptides” (Nature Communications, 2017)
“Also recorded” adds a separate entry of the source.

What was measured:
AtPRK6^LRR = experiment: Gel filtration assay with AtPRK6^LRR; type: binding, Arabidopsis thaliana
Description: The genes of AtPRK3 ^LRR (residues 1–241), AtPRK4 ^LRR (residues 1–277), AtPRK5 ^LRR (residues 1–279), AtPRK6 ^LRR (residues 1–262), MIK1 ^LRR (residues 1–633), MIK2 ^LRR (residues 1–707) were amplified from Arabidopsis cDNA library by PCR and cloned into pFastBac-1 vector with a C-terminal 6 × His-tag. Their identities were confirmed by sequencing. The mature form of AtLURE1.1 (residues 20–94), AtLURE1.2 (residues 20–90), AtLURE1.3 (residues 21–91), and AtLURE1.4 (residues 20–90) were cloned into pFastBac-1 vector, with a modified N-terminal hemolin signal peptide and 6 × His-SUMO tag. Point mutation constructs were generated by QuickChange Site-Directed Mutagenesis Kit (Strategene). All the proteins were expressed using the Bac-to-Bac baculovirus expression system (Invitrogen) in High Five cells at 22 °C. One liter of High Five cells (2.0 × 10^6 cells mL^−1) cultured in the medium from Expression Systems was infected with 25 ml recombinant baculovirus and the media was collected after 72 h of infection. Secreted LRR proteins were purified using Ni-NTA (Novagen) and size-exclusion chromatography (Hiload 200, GE Healthcare) in buffer containing 10 mM Bis-Tris pH 6.0 and 100 mM NaCl. The His-SUMO tag of the AtLURE proteins was removed by Prescission Protease at 4 °C overnight in buffer containing 25 mM Tris pH 8.0 and 150 mM NaCl. […]

[1] = system: AtPRK3^LRR and AtPRK6^LRR; experiment: Gel filtration assay, AtPRK3^LRR-AtPRK6^LRR interaction in the presence of AtLURE1.2; type: binding, Arabidopsis
Method: The AtPRK6^LRR and AtLURE1.2 proteins purified as described above were subjected to gel filtration (Hiload 200, GE Healthcare) in buffer containing 10 mM Bis-Tris pH 6.0 and 100 mM NaCl. A mixture of the purified AtPRK6^LRR and AtLURE1.2 proteins with a molar ratio of about 1:3 were incubated in 4 °C for 30 min before gel filtration analysis. Samples from relevant fractions were applied to SDS-PAGE and visualized by Coomassie blue staining. Similar procedures were used to verify the interaction of AtLURE1.2 with the other LRR proteins. […]
the presence or absence of AtLURE1.2 in vitro. […]
assay. Left panel: gel-filtration profile of the AtPRK3LRR and AtPRK6LRR proteins.
A280 (mAU), […] at 280 nm. Right panel: Coomassie blue staining of the peak fractions shown on the top following SDS–PAGE. M, molecular weight ladder (kDa). Numbers on top of SDS-PAGE indicate elution […]
AtLURE1.2 under gel filtration assay. The assays were performed as described in […]
(1 picture or pasted object on this page, not shown here)

[2] = system: prk6 pollen tubes transformed with PRK6 of wild-type; experiment: Gelatin-beads assay, prk6 pollen tubes transformed with wild-type PRK6; type: cell-based, Arabidopsis; settings: beads with 250 nM wild-type AtLURE1.2; 10–23 pollen tubes per assay, three assays
Method: Attraction activities of mutant AtLURE1.2 peptides were examined for semi-in-vivo pollen tubes growing through cut, pollinated pistils by gelatin-beads assay and wavy assay, [20]. For the gelatin-beads assay, pollen tubes were grown on solid pollen germination medium poured into a mold made with 1-mm thick silicone rubber and cover glasses. After hand-pollination, the topside cover glass was removed and the medium was covered with hydrated silicone oil (KF-96–100CS; Shin-Etsu). Attraction of pollen tubes toward the peptide was evaluated using AtLURE1 peptide containing gelatine beads under an inverted microscope (IX71, Olympus) equipped with a micro-manipulator (Narishige). For the AtLURE1-responsive wavy assay, the purified AtLURE1.2 peptide was added to solid pollen germination medium, which was melted at 70 °C and then cooled to a certain degree. The mixture was mixed by vortexing and poured into the mold. Pollen tubes of each genotype were grown through cut styles, as mentioned above. Each peptide (25 μM in 10 mM Bis-Tris (pH 6.0) and 100 mM NaCl) was diluted to 250 nM by cultivation medium in both assays. To examine reactivity of PRK6 mutants to AtLURE1.2, constructs for PRK6 mutants, D234A, N239A, and ΔN239I240, were generated by site-directed mutagenesis from a wild-type PRK6 vector, pPZP221-pPRK6::PRK6-mRuby2 (ref. [20]). […]

MIK2 = settings: cited from earlier work
Description: (§1) More recently, progress has been made in the identification of sensory receptors for external cues during pollen tube guidance, [18]. Through genetic screening, two research groups identified different pollen tube specific receptor kinases (RKs) which can function as the receptors of AtLURE1 (refs. [19], [20]). […] By contrast, our data ... || page 2: co-receptor in the signaling system. Typos : - line 167 : Lue242 instead of Leu242 Reviewer #3 (Remarks to the Author): The Zhang et al. manuscript is a continuation of the study of pollen tube guidance to its female target to deliver sperm for fertilization, starting almost twenty years ago by the Higashiyama group, which recently reported a number of pollen receptor kinases (PRKs) as receptors for the attractant LURE1(- 2) from Arabidopsis. The Zhang et al study here caps it by elucidating the structure of LURE1-PRK6 on the atomic level. In principle, the study is an imminently publi ...

MDIS1 = settings: cited from earlier work
Description: as §1

MIK1 = settings: cited from earlier work
Description: as §1

B1: AtLURE1.2: mature form of AtLURE1.2 (residues 20–90), defensin-like cysteine-rich peptide expressed in insect cells (protein)
chain: TLINGSSDEERTYSFSPTTSPFDPRSLNQELKIGRIGYCFDCARACMRRGKYIRTCSFERKLCRCSISDIK
modifications: left off: His6, N-terminal, cleaved | SUMO, N-terminal, cleaved
notes: mature form of AtLURE1.2 (residues 20–90), defensin-like cysteine-rich peptide expressed in insect cells
- effect on monomeric state of AtPRK6^LRR in solution (AtPRK6^LRR; gel filtration): did not alter the monomeric status; also recorded: does not alter the monomeric state
- complex formation in gel filtration (AtPRK6^LRR; purified proteins mixed at molar ratio about 1:3, 4 °C 30 min, 10 mM Bis-Tris pH 6.0, 100 mM NaCl): formed a stable complex
- AtPRK3^LRR-AtPRK6^LRR complex formation in the presence of AtLURE1.2 [1]: do not form a complex; also recorded: failed to detect AtPRK6^LRR−AtPRK3^LRR interaction
- pollen tube attraction [2]: attraction was normally observed
- binding to MIK2 (MIK2): directly binds
- binding to MDIS1 (MDIS1): directly binds
- binding to MIK1 (MIK1): directly binds
